Patent US20220401536A1 (published 2022)

B1: mouse DD1α (endogenous, on mouse T cells or CD11b+Gr-1+ MDSCs) (receptor, UniProt Q9D659 33-308, looked up)
chain: FKVTTPYSLYVCPEGQNATLTCRILGPVSKGHDVTIYKTWYLSSRGEVQMCKEHRPIRNFTLQHLQHHGSHLKANASHDQPQKHGLELASDHHGNFSITLRNVTPRDSGLYCCLVIELKNHHPEQRFYGSMELQVQAGKGSGSTCMASNEQDSDSITAAALATGACIVGILCLPLILLLVYKQRQVASHRRAQELVRMDSNTQGIENPGFETTPPFQGMPEAKTRPPLSYVAQRQPSESGRYLLSDPSTPLSPPGPGDVFFPSLDPVPDSPNSEAI
B2: anti-DD1α monoclonal antibody 2B11 (antibody, V domains shown)
VH: EVQLVESGGDLVKPGGSLKLSCAASGFTFSNYGMSWVRQTPDKRLEYVATINSGGSYTYYPDSVKGRFTISRDNAKTTLYLQMSSLKSEDTAMYYCARIYDYDGDYYALDYWGQGTSVTVSS
VL: DVLMTQTPLSLPVSLGDQASISCRSSQSIVHTNGNTYLEWYLQKPGQSPKLLIYKVSNRFSGVPDRFSGSGSGTDFTLKISRVEAEDLGVYYCFQGSHVPWTFGGGTKLEIK
notes: Purified from hybridoma; also called DD1α-specific Ab 2B11

How the values were obtained:
[1] = target: mouse PD-1 (endogenous, on mouse CD4+ and CD8+ T cells) (mouse) (UniProt Q02242); test: cell-based or functional assay
Sequence of mouse PD-1 (endogenous, on mouse CD4+ and CD8+ T cells) (mouse) (Q02242 25-288): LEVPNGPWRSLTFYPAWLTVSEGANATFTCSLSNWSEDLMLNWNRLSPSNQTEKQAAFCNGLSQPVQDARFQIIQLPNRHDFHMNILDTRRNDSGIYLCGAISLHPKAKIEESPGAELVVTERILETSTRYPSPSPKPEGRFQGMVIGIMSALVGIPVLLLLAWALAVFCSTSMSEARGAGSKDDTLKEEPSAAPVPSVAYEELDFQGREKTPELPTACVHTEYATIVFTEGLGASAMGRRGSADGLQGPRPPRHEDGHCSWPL

[2] = target: T1, DD1α-HA (HA-tagged DD1α expressed in 293T cells or on Jurkat cells) (human, UniProt Q9H7M9 33-311); test: competition with DD1α-Ig and PD-1-Ig for binding to Jurkat cells transfected with DD1α, flow cytometry
T1 construct: also called Jurkat/DD1α; DD1α-transfected Jurkat cells; not shown: HA tag

Row | Binder | CFSE- and Far Red-double-positive events: DD1α-/- CD11b+Gr-1+ MDSCs with PD-1-/- CD8+ T cells [1] [%] | CFSE- and Far Red-double-positive events: DD1α-null CD11b+Gr-1+ MDSCs with Wt CD8+ T cells [1] [%] | CFSE- and Far Red-double-positive events: Wt CD11b+Gr-1+ MDSCs with PD-1-/- CD8+ T cells [1] [%] | CFSE- and Far Red-double-positive events: Wt CD11b+Gr-1+ MDSCs with Wt CD8+ T cells [1] [%] | proliferation of CD4+ T cells (CFSE dilution) with DD1α-/- CD11b+Gr-1high MDSCs [1] [%] | proliferation of CD8+ T cells (CFSE dilution) with DD1α-/- CD11b+Gr-1high MDSCs [1] [%] | binding result [2]
1 | B1 | 1.36 | 7.1 | 6.59 | 22 | 70 | 63 | –
2 | B2 | – | – | – | – | – | – | binds
